What was measured:
[1] = test system: cancer patients having progressive disease; conditions: human, in vivo; cited from earlier work
TNFα = conditions: cited from earlier work
[2] = test system: HT29 (human colorectal carcinoma) xenograft; assay: HT29 xenograft necrosis after tTF constructs with Factor VIIa; design: species or system BALB/c nu/nu mice; conditions: mouse, in vivo, iv
[3] = test system: C1300 Muγ mouse neuroblastoma; assay: In vivo tumor thrombosis, C1300 Muγ; design: species or system BALB/c nu/nu mice
Source text: (§1) Tumor test systems were of four types: i) 3LL mouse lung carcinoma growing subcutaneously in C57BL/6 mice; ii) C1300 mouse neuroblastoma growing subcutaneously in BALB/c nu/nu mice; iii) HT29 human colorectal carcinoma growing subcutaneously in BALB/c nu/nu mice; and iv) C1300 Muγ mouse neuroblastoma growing subcutaneously in BALB/c nu/nu mice. The C1300 Muγ tumor is an interferon-γ secreting transfectant derived from the C1300 tumor (Watanabe et al, 1989).
(§2) To establish tumors, 10^6 to 1.5×10^7 tumor cells were injected subcutaneously into the right anterior flank of the mice. When tumors had grown to various sizes, mice were randomly assigned to different study groups. […] Fab′, or bispecific antibody. Other mice received equivalent quantities IgG, Fab′ or bispecific antibody alone. The injections were performed slowly into one of the tail veins over approximately 45 seconds, usually followed by 200 μl of saline.
(§3) Twenty-four hours after being injected with tTF or immunoglobulin-tTF conjugates, the mice were anesthetized with metophane and were exsanguinated by perfusion with heparinized saline. Tumors and normal tissues were excised and immediately fixed in 3% (v/v) formalin. Paraffin sections were cut and stained with hematoxylin and eosin. Blood vessels having open lumens containing erythrocytes and blood vessels containing thrombi were counted. […]

C1300 Muγ tumors = assay: Anti-tumor effects (tumor growth), C1300 Muγ; assay type: in vivo, nu/nu mice; conditions: 300 mm^3 at start
Experimental: The tumor test systems were: i) L540 human Hodgkin's disease tumors growing in SCID mice; ii) C1300 Muγ (interferon-secreting) neuroblastoma growing in nu/nu mice; iii) H460 human non-small cell lung carcinoma growing in nu/nu mice. To establish solid tumors, 1.5×10^7 tumor cells were injected subcutaneously into the right anterior flank of SCID or BALB/c nu/nu mice (Charles River Labs., Wilmingham, Mass.). When the tumors had grown to various diameters, mice were assigned to different experimental groups, each containing 4 to 9 mice.
Other mice received equivalent quantities of bispecific antibody alone. The injections were performed over ˜45 seconds into one of the tail veins, followed by 200 μl of saline. The infusions were repeated six days later. Perpendicular tumor diameters were measured at regular intervals and tumor volumes were calculated.
Mice bearing small (300 mm^3) C1300 Muγ tumors were injected intravenously with 16-20 μg tTF219. The treatment was repeated one week later. […] One week after the second treatment with tTF219, tumors were 60% of the size of tumors in mice receiving diluent alone. The greater effectiveness of the second injection probably derives from the greater thrombotic action of tTF219 on vessels in large tumors, observed above. […]

A20 lymphoma cells = assay: In vitro coagulation assay on A20 cells with B21-2/10H10 capture antibody; assay type: cell-based, mouse
[4] = test system: C1300 mouse neuroblastoma; assay: In vivo tumor thrombosis, C1300; design: species or system BALB/c nu/nu mice; conditions: large tumors (>1000 mm^3); 24 hours after injection
Source text: as §1, §2, §3

3LL mouse lung carcinoma = assay: In vivo tumor thrombosis, 3LL; design: species or system C57BL/6 mice; conditions: large (>800 mm^3) tumors
Source text: as §1, §2, §3

[5] = test system: HT29 human colorectal carcinomas; assay: Anti-tumor effects, HT29; assay type: in vivo, Nu/nu mice; conditions: large (1200 mm^3) tumors
Experimental: Anti-tumor effects were also observed in mice bearing HT29 human colorectal carcinomas. Nu/nu mice bearing large (1200 mm^3) tumors on their flanks were injected intravenously with tTF219 or PBS (control), and growth of the tumors was monitored each day for 10 days. The tumors in the tTF219 treated mice discontinued growth for about 7 days after treatment, whereas the tumors in mice treated with PBS continued to grow unchecked.

[6] = test system: IL-1α-stimulated bEnd.3 cells; assay: Factor Xa formation by coaguligand on bEnd.3 cells, chromogenic assay; assay type: cell-based, mouse; conditions: 10 μg per ml
Experimental: The ability of Annexin V to affect Factor Xa formation induced by coaguligand was determined by a chromogenic assay. […] Annexin V was added at concentrations ranging from 0.1 to 10 μg/ml and cells were incubated for 30 min. before addition of diluted Proplex T. The amount of Factor Xa generated in the presence or absence of Annexin V was determined. Each treatment was performed in duplicate and repeated at least twice.

L540 Hodgkin tumors = assay: Annexin V inhibition of coaguligand-induced thrombosis in vivo; design: species or system SCID mice
Experimental: The ability of Annexin V to inhibit coaguligand-induced thrombosis in vivo was examined in L540 Hodgkin-bearing SCID mice.
Four hours after the last injection mice were anesthetized and perfused with heparinized saline. Tumors were removed, fixed with 4% formalin, paraffin-embedded and stained with hematoxylene-eosin. The number of thrombosed and non-thrombosed blood vessels were counted and the percentage of thrombosis was calculated.

NC(=O)c1nnn(Cc2cc(Cl)c(C(=O)c3ccc(Cl)cc3)c(Cl)c2)c1N [CAI, carboxyamidotriazole]
patients with disease stabilization [1]: 49%

Cc1ccc2c(=O)c3cccc(CC(=O)O)c3oc2c1C [DMXAA]
fold less effective than endotoxin in inducing TNFα (TNFα): 20 fold

B1: tTF219: residues 1-219 of TF plus an additional glycine at the N-terminus (protein)
chain: GSGTTNTVAAYNLTWKSTNFKTILEWEPKPVNQVYTVQISTKSGDWKSKCFYTTDTECDLTDEIVKDVKQTYLARVFSYPAGNVESTGSAGEPLYENSPEFTPYLETNLGQPTIQSFEQVGTKVNVTVEDERTLVRRNNTFLSLRDVFGKDLIYTLYYWKSSSSGKKTAKTNTNEFLIDVDKGENYCFSVQAVIPSRTVNRKSTDSPVECMGQEKGEFRE
necrosis, average area as percentage of total tumor area [2]: some necrosis | thrombosis of tumor vessels ([3]; 24 hours after injection): practically all vessels in all regions of the tumor were thrombosed | effect on vessels in small tumors ([3]; small (<500 mm^3) C1300 and C1300 Muγ): largely unaffected | tumor size relative to mice receiving diluent alone (C1300 Muγ tumors; 16-20 μg i.v., repeated one week later, one week after the second treatment): 60% | tumor size relative to controls receiving diluent alone (C1300 Muγ tumors; treatment repeated 6 days later, fourteen days after the first injection): 75% | coagulation time (A20 lymphoma cells; 10^−10 M tTF219, absence of Factor VIIa): 60 s | coagulation time (A20 lymphoma cells; 10^−10 M tTF219, presence of 13.5 nM Factor VIIa): 20 s | thrombosis of tumor vessels [4]: virtually all vessels were thrombosed | tumor vessels thrombosed, average (3LL mouse lung carcinoma): 62% | time tumors discontinued growth after treatment [5]: about 7 days

B2: Annexin V: binds to PS with high affinity (protein, UniProt P08758 2-320, looked up)
Annexin A5: AQVLRGTVTDFPGFDERADAETLRKAMKGLGTDEESILTLLTSRSNAQRQEISAAFKTLFGRDLLDDLKSELTGKFEKLIVALMKPSRLYDAYELKHALKGAGTNEKVLTEIIASRTPEELRAIKQVYEEEYGSSLEDDVVGDTSGYYQRMLVVLLQANRDPDAGIDEAQVEQDAQALFQAGELKWGTDEEKFITIFGTRSVSHLRKVFDKYMTISGFQIEETIDRETSGNLEQLLLAVVKSIRSIPAYLAETLYYAMKGAGTDDHTLIRVMVSRSEIDLFNIRKEFRKNFATSLYSMIKGDTSGDYKKALLLLCGEDD
inhibition of factor Xa production [6]: 58% | effect of pre-treatment on coaguligand-induced anti-tumor effects (L540 Hodgkin tumors; 100 μg Annexin V 2 hours before 40 μg coaguligand): completely abolished | effect on tumor morphology (L540 Hodgkin tumors; 100 μg Annexin V alone): did not alter tumor morphology
